# From US20130004429A1
# Ends that are not written are not given here. * marks the point of attachment. Biotin = O=C1N[C@H]2[C@H](CS[C@H]2CCCCC(=O)*)N1
# Target: tubulin (rat)
# Test: cell-based or functional assay
binder,measurement,value
"Biotin-YSSYSAPVSSSLSVRRSYSSSSGS [NFL-TBS40-63 peptide, biotinylated]","cells with altered microtubule network (immunocytochemistry), 9L rat glioma cells",76.7%
same,"cells with altered microtubule network (immunocytochemistry), F98 rat glioma cells",82%
same,"cells with altered microtubule network (immunocytochemistry), rat neurons",8.5%
same,"cells with altered microtubule network (immunocytochemistry), rat primary astrocytes",4.7%
